The source of these data is US4885277A, “Anticoagulant therapy” (Oklahoma Medical Research Foundation, priority 1987, dated 1989).

The assay concerns endothelial cellular receptors for Factor IX (cultured bovine aortic endothelial cells). The experiment in a line: Competitive binding of [125I]-Factor IX to cultured bovine aortic endothelial cells. To be noted: cultured bovine aortic endothelial cells, 4-5 hours at 4° C.; mean, SEM less than 20%; read-out: Inhibitory Constant, inhibition of binding of [125I]-Factor IX. The procedure: The purified peptides were tested for their ability to block the binding of bovine Factor IX and IXa to cultured bovine aortic endothelial cells. Bovine Factor IX and IXa for these studies were prepared and radioiodinated (using Na^125 I and the solid state lactoperoxidase technique) using methods described by Stern, et al. (J. Biol. Chem. 260, pp. 6717-6722 [1985]). Bovine aortic endothelial cells were obtained from the aortae of newborn calves as described by Stern, et al. (Proc. Natl. Acad. Sci. U.S.A., 80, pp. 4119-4123 [1983]). These endothelial cells were grown to confluence (1.3×10^5 cells/cm^2) in culture dishes. Binding assays were carried out by incubating either ^125 I-Factor IX or ^125 I-Factor IXa with endothelial cell monolayers in the presence of varying concentrations of one of the peptides. The buffer used in these experiments was Minimal Essential Medium containing 0.5 mg/ml transferring, and the incubation time was 4-5 hours at 4° C. At the end of the incubation period, the cultures were washed to remove unbound material. Then, specifically bound [^125 I]-Factor IX or [^125 I]-Factor IXa was eluted during exposure to EDTA-containing buffer as described by Stern, et al. (Proc. Natl. Acad. Sci. U.S.A., 80, pp. 4119-4123 [1983].

B1: Factor IX: bovine Factor IX, Vitamin K-dependent plasma glycoprotein, used as competitor (protein, UniProt P00741 26-462, looked up)
Coagulation factor IX: AECTVFLDRENATKILHRPKRYNSGKLEEFVRGNLERECKEEKCSFEEAREVFENTEKTTEFWKQYVDGDQCESNPCLNGGMCKDDINSYECWCQAGFEGTNCELDATCSIKNGRCKQFCKRDTDNKVVCSCTDGYRLAEDQKSCEPAVPFPCGRVSVSHISKKLTRAETIFSNTNYENSSEAEIIWDNVTQSNQSFDEFSRVVGGEDAERGQFPWQVLLHGEIAAFCGGSIVNEKWVVTAAHCIKPGVKITVVAGEHNTEKPEPTEQKRNVIRAIPYHSYNASINKYSHDIALLELDEPLELNSYVTPICIADRDYTNIFLKFGYGYVSGWGKVFNRGRSASILQYLKVPLVDRATCLRSTKFSIYSHMFCAGYHEGGKDSCQGDSGGPHVTEVEGTSFLTGIISWGEECAMKGKYGIYTKVSRYVNWIKEKTKLT
As for B1, the Ki is 3 nM.
